Experimental data: IntAct's records for PubMed 11956200

B1: Mitochondrial import inner membrane translocase subunit Tim8 A (Homo sapiens), O60220 (parent)
chain: MDSSSSSSAAGLGAVDPQLQHFIEVETQKQRFQQLVHQMTELCWEKCMDKPGPKLDSRAEACFVNCVERFIDTSQFILNRLEQTQKSKPVFSESLSD
partner: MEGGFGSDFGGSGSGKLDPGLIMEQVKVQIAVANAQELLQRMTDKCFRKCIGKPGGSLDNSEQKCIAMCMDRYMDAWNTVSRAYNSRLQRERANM

Variants of: B1
Details: with tim13_human TIMM13, Q9Y5L4

| Variant | effect of a mutation on the interaction |
| --- | --- |
| C66W | disrupting interaction strength |
